Numbering of substitutions follows the chain as printed. In names and notes the source's numbering stands.
Assays:
Experiment in all cases: cross-linking; BMOE (1 mM, 45 s) on hexamers with reporter cysteines, 0.5 µM in ATPase buffer; without or with Nse5/6 (0.625 µM), 2 mM ATP, plasmid DNA or 40 bp DNA; SDS-PAGE, Coomassie
Conditions in all cases: both partners purified
Smc6-3C-Twin-Strep = molecular target: T1, Smc6-3C-Twin-Strep (S. cerevisiae, UniProt Q12749 1-1114)
T1 construct: Smc6, S. cerevisiae; stood in the assays as a subunit of the hexamer or octamer; also called Smc6-Twin-Strep; Smc6-3C-TS; source: E. coli (DE3) Rosetta, co-expressed with the other subunits of the hexamer, purified as part of the complex; not shown: Twin-Strep (after a 3C site), C-terminal, kept
T1 sequence (looked up): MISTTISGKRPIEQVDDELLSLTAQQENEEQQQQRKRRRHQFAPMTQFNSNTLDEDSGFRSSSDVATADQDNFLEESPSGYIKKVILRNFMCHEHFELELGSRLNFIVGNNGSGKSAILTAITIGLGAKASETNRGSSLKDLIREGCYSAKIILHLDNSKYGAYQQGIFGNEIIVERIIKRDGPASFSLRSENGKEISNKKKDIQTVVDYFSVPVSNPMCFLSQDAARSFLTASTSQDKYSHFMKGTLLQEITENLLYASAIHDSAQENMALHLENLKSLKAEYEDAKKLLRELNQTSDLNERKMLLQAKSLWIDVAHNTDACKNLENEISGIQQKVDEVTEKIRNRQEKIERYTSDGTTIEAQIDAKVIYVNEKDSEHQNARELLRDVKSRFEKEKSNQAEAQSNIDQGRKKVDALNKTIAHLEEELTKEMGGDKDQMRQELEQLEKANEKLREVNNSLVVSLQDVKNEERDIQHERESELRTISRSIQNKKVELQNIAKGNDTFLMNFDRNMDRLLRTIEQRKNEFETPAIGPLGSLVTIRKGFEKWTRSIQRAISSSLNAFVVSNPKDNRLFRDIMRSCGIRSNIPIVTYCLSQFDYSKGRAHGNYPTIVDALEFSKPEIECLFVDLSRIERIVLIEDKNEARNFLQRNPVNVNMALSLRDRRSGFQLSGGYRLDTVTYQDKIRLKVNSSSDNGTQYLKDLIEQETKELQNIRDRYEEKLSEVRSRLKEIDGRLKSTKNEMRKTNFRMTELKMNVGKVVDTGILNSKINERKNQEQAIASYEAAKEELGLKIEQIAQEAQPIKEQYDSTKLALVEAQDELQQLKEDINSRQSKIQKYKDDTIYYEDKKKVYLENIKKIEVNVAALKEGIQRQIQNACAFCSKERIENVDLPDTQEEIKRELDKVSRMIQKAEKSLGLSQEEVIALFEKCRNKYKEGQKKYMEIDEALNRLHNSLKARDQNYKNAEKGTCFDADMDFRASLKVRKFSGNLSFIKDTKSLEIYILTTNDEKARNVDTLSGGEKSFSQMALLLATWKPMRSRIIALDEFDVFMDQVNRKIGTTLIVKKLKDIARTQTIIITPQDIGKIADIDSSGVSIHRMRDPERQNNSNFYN

Smc6(N643C) = molecular target: T2, Smc6(N643C) (S. cerevisiae, UniProt Q12749 1-1114, N643C)
T2 construct: Smc6, S. cerevisiae; subunit of the Hinge-Cys (south) hexamer; also called Hinge-Cys south, Smc6; source: E. coli (DE3) Rosetta, purified as part of the hexamer
T2 sequence (looked up): T1 sequence (looked up) with N643C

Smc6(N572C) = molecular target: T3, Smc6(N572C) (S. cerevisiae, UniProt Q12749 1-1114, N572C)
T3 construct: Smc6, S. cerevisiae; subunit of the Hinge-Cys (north) hexamer; also called Hinge-Cys north, Smc6; source: E. coli (DE3) Rosetta, purified as part of the hexamer
T3 sequence (looked up): T1 sequence (looked up) with N572C

B1: Smc5(N975C) (natural protein, S. cerevisiae, UniProt Q08204 1-1093, looked up)
chain: MTSLIDLGRYVERTHHGEDTEPRSKRVKIAKPDLSSFQPGSIIKIRLQDFVTYTLTEFNLSPSLNMIIGPNGSGKSTFVCAVCLGLAGKPEYIGRSKKVEDFIKNGQDVSKIEITLKNSPNVTDIEYIDARDETIKITRIITRSKRRSDYLINDYQVSESVVKTLVAQLNIQLDNLCQFLSQERVEEFARLKSVKLLVETIRSIDASLLDVLDELRELQGNEQSLQKDLDFKKAKIVHLRQESDKLRKSVESLRDFQNKKGEIELHSQLLPYVKVKDHKEKLNIYKEEYERAKANLRAILKDKKPFANTKKTLENQVEELTEKCSLKTDEFLKAKEKINEIFEKLNTIRDEVIKKKNQNEYYRGRTKKLQATIISTKEDFLRSQEILAQTHLPEKSVFEDIDIKRKEIINKEGEIRDLISEIDAKANAINHEMRSIQRQAESKTKSLTTTDKIGILNQDQDLKEVRDAVLMVREHPEMKDKILEPPIMTVSAINAQFAAYLAQCVDYNTSKALTVVDSDSYKLFANPILDKFKVNLRELSSADTTPPVPAETVRDLGFEGYLSDFITGDKRVMKMLCQTSKIHTIPVSRRELTPAQIKKLITPRPNGKILFKRIIHGNRLVDIKQSAYGSKQVFPTDVSIKQTNFYQGSIMSNEQKIRIENEIINLKNEYNDRKSTLDALSNQKSGYRHELSELASKNDDINREAHQLNEIRKKYTMRKSTIETLREKLDQLKREARKDVSQKIKDIDDQIQQLLLKQRHLLSKMASSMKSLKNCQKELISTQILQFEAQNMDVSMNDVIGFFNEREADLKSQYEDKKKFVKEMRDTPEFQSWMREIRSYDQDTKEKLNKVAEKYEEEGNFNLSFVQDVLDKLESEIAMVNHDESAVTILDQVTAELRELEHTVPQQSKDLETIKAKLKEDHAVLEPKLDDIVSKISARFARLFNNVGSAGAVRLEKPKDYAEWKIEIMVKFRDCAPLKKLDSHTQSGGERAVSTVLYMIALQEFTSAPFRVVDEINQGMDSRNERIVHKAMVENACAENTSQYFLITPKLLTGLHYHEKMRIHCVMAGSWIPNPSEDPKMIHFGETSNYSFD
notes: Smc5, S. cerevisiae; pairs with the natural cysteines C92 and C147 of Smc6; also called E-Cys, Smc5; source: E. coli (DE3) Rosetta, purified as part of the hexamer
Smc6-3C-Twin-Strep
  binding result: binds

B2: Smc5(N526C) (natural protein, S. cerevisiae, UniProt Q08204 1-1093, looked up)
chain: B1 chain with N526C, C975N
notes: Smc5, S. cerevisiae; subunit of the Hinge-Cys (south) hexamer; also called Hinge-Cys south, Smc5; source: E. coli (DE3) Rosetta, purified as part of the hexamer
Smc6(N643C)
  binding result: binds

B3: Smc5(V638C) (natural protein, S. cerevisiae, UniProt Q08204 1-1093, looked up)
chain: B1 chain with V638C, C975N
notes: Smc5, S. cerevisiae; subunit of the Hinge-Cys (north) hexamer; also called Hinge-Cys north, Smc5; source: E. coli (DE3) Rosetta, purified as part of the hexamer
Smc6(N572C)
  binding result: binds

From publication PMC8327961, “Nse5/6 inhibits the Smc5/6 ATPase and modulates DNA substrate binding” (The EMBO Journal, 2021)
